T1: hPRLR.mmh (soluble monomeric human PRLR) (human)
T1 construct: soluble monomeric construct
T1 chain: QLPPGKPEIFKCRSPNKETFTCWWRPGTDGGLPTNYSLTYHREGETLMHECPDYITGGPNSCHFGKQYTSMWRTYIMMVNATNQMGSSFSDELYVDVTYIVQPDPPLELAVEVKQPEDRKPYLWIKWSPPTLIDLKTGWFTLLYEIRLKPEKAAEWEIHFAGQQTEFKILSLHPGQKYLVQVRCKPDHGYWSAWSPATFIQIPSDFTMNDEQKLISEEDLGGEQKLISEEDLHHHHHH

T2: hPRLR.mFc (soluble dimeric human PRLR) (human)
T2 construct: dimeric construct
T2 chain: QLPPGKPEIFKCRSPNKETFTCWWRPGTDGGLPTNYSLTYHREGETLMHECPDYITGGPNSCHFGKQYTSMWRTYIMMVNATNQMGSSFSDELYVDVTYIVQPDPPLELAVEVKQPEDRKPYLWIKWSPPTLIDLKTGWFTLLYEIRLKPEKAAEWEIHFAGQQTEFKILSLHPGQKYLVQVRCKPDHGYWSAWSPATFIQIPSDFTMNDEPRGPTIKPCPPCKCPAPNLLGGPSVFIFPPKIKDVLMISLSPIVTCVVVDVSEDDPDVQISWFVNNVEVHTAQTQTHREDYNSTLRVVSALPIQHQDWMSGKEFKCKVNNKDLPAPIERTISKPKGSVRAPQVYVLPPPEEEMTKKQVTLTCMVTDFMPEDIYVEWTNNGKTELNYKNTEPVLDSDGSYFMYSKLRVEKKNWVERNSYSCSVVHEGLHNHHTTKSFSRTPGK

T3: mfPRLR.mmh (soluble monomeric macaca fascicularis PRLR) (macaca fascicularis)
T3 construct: soluble monomeric construct; also called macaca fascicularis (mf) PRLR.mmh
T3 chain: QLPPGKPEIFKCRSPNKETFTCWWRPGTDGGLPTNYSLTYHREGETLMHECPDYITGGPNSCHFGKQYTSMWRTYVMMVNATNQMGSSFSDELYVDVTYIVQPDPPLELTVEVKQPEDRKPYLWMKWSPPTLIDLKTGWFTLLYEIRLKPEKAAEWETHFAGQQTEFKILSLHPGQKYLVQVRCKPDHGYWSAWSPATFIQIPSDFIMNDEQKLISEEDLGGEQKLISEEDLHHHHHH

T4: human prolactin receptor (PRLR) on cells (human, UniProt P16471 25-622)
T4 sequence: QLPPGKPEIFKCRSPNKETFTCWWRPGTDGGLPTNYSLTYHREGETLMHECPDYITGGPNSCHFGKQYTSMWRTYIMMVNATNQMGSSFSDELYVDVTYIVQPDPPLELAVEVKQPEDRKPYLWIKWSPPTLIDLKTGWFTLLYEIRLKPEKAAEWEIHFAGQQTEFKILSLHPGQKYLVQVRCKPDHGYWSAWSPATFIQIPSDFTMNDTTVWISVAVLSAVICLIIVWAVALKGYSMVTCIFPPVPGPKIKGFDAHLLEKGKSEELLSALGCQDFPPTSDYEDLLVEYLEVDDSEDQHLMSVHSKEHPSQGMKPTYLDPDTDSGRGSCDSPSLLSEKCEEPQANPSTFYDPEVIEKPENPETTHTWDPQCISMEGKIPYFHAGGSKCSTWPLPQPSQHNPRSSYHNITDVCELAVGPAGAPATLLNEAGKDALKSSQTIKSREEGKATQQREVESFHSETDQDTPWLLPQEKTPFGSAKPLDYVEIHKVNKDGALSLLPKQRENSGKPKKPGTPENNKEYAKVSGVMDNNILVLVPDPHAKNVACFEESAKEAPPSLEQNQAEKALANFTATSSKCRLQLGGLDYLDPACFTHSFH

T5: mouse PRLR on HEK293 cells (mouse, UniProt Q08501 20-608)
T5 construct: whole, on cells; also called mPRLR; HEK293/mPRLR
T5 sequence (looked up): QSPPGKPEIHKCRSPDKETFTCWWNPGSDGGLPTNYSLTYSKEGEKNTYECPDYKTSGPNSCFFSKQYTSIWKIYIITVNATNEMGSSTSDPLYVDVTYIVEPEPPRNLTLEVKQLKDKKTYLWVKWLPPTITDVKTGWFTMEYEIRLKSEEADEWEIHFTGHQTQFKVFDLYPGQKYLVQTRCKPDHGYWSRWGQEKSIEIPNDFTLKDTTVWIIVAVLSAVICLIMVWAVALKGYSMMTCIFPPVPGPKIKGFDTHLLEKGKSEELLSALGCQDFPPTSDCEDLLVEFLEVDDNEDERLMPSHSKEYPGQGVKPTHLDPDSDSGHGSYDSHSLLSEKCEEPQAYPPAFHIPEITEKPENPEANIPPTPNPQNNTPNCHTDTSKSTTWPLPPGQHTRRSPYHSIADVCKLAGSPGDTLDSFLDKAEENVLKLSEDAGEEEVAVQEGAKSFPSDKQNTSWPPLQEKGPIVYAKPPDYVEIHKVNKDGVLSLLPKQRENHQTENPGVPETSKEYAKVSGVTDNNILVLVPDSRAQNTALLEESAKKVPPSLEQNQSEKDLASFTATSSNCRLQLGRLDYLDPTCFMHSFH

T6: monkey (macaca fascicularis) PRLR on HEK293 cells (macaca fascicularis, UniProt A0A2K5WXK1 25-619)
T6 construct: also called mfPRLR; HEK293/mfPRLR
T6 sequence: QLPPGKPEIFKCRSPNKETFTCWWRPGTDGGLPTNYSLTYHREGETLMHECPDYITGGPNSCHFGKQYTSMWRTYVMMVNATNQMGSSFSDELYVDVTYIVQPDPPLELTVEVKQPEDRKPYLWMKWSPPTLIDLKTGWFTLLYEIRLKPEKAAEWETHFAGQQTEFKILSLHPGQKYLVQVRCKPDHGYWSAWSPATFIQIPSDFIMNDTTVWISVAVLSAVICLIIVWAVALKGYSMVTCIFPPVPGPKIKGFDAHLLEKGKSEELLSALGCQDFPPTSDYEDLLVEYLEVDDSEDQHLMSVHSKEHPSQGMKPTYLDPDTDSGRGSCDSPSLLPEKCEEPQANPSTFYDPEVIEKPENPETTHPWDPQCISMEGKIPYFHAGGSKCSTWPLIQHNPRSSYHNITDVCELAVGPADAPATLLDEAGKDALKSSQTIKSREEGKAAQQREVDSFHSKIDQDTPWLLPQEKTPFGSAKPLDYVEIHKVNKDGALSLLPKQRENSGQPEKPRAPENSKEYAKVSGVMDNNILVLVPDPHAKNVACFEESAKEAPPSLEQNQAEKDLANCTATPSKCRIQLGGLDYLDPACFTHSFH


Tests used:
[1] = target: T1, hPRLR.mmh (soluble monomeric human PRLR); test: SPR, 37C, mAb capture
Experimental: (§1) Measurements were conducted on a T200 Biacore instrument. Kinetic association (kₐ) and dissociation (kd) rate constants were determined by processing and fitting the data to a 1:1 binding model using Scrubber 2.0 curve fitting software. Binding dissociation equilibrium constants (KD) and dissociative half-lives (t_{1/2}) were calculated from the kinetic rate constants as: KD (M)=kd/kₐ; and […].

[2] = target: T2, hPRLR.mFc (soluble dimeric human PRLR); test: SPR, 37C, mAb capture
Experimental: as §1

[3] = target: T3, mfPRLR.mmh (soluble monomeric macaca …); test: SPR, 37C, mAb capture
Experimental: as §1

[4] = target: T4, human prolactin receptor (PRLR) on cells; test: cell-based or functional assay
[5] = target: T4, human prolactin receptor (PRLR) on cells; test: FACS, HEK293/hPRLR cells; further: test concentration or dose not given here
[6] = target: T5, mouse PRLR on HEK293 cells; test: FACS, HEK293/mPRLR cells; further: test concentration or dose not given here
[7] = target: T6, monkey (macaca fascicularis) PRLR on …; test: FACS, HEK293/mfPRLR cells; further: test concentration or dose not given here
[8] = target: T4, human prolactin receptor (PRLR) on cells; test: FACS, T47D cells (native PRLR); further: test concentration or dose not given here

Binder	T½ [1]	T½ [2]	T½ [3]	% Internalization relative to Control I (alexa488 intensity in intracellular vesicles at 37 C, T47D cells) [4]	FACS Cell Binding (Fold Above Background) [5]	FACS Cell Binding (Fold Above Background) [6]	FACS Cell Binding (Fold Above Background) [7]	FACS Cell Binding (Fold Above Background) [8]
H1H6953N (antibody, human IgG1, V domains shown, also called H1M6953N) VH: EVQLLESGGGLVQPGGTLRLSCAASGFTFSAYAMSWVRQAPGKGLEWVSSINVRAGDTYYADSVKGRFTISRDNSKNTLFLLMNSLRAEDTAAYYCAKARYSSNWGFDFWGQGTLVTVSS VL: DIVMTQSPDSLTVSLGARTTINCQSSQTILHSSNNHNYLAWYQQKPGLPPKLLIYWSSTRESGVPDRFSGSGSGTDFTLTISSLQAEDVAIYYCQQYSNTPYTFGQGTKLEIN	9.4 min	68 min	4.5 min	154%	37 fold above background	2 fold above background	29 fold above background	40 fold above background
H1H6967N (antibody, human IgG1, V domains shown, also called H2M6967N) VH: EVQLVESGGDLVHPGRSLRLSCAASGFPFDEYAMHWVRQVPGKGLEWVSGISWSNNNIGYADSVKGRFTISRDNAKNSLYLQMNSLRPEDTAFYYCAKSGIFDSWGQGTLVTVSS VL: EIVMTQSPATLSVSPGERATLSCRASQSVSRDLAWYQQKPGQAPRLLIHGASTRATGIPARFSGSGSGAEFTLIISSLQSEDFAVYYCQQYNNWPLTFGGGTKVEIK	12.4 min	119 min	7.1 min	169%	38 fold above background	2 fold above background	28 fold above background	41 fold above background
H1H6774P (antibody, human IgG1, V domains shown, human IgG1 Fc (H1H)) VH: EVQLVESGGGLAQPGGSLRLSCVASGFTFSTYWMSWVRQAPGKGLDWVGNIKQDGSEQNYVDSVRGRFTISRDNAKNSLFLQMNSLRAEDTGVYYCATLLTKGDYWGQGTLVTVSS VL: DIQMTQSPSSLSASVGDSVTITCRASQDISNYLDWFQQKPGKAPKSLIYAASILQGGVPSRFSGSGYGTDFTLTISSLQPEDFATYYCRQYKTYPFTFGPGTKVDIK	4 min	60 min	3 min	162%	1 fold above background	1 fold above background	29 fold above background	39 fold above background
H1H6783P (antibody, human IgG1, V domains shown, human IgG1 Fc (H1H)) VH: QVQLQQSGPGLVKPSQTLSLTCAISGDSVSSNTFAWNWIRQSPSRGLEWLGRTYYRSKWYIDYAESVKSRITITPDTSKNQFSLQLNSVTPEDTALYYCAGGYTYAPRGAFDIWGQGTMVTVSS VL: not shown	7 min	83 min	9 min	161%	37 fold above background	1 fold above background	27 fold above background	38 fold above background
H1H6781P (antibody, human IgG1, V domains shown, human IgG1 Fc (H1H)) VH: EVQLVESGGDLVQPGESLRLSCTASGFTFNSYEMNWVRQAPGKGLEWVSYISSSGGTKYYVDSVKGRFTISRDNAKKSLYLQMNSLRADDTALYYCARLNGVDVFDIWGQGTMVTVSS VL: DIQMTQSPSSLSASVGDRVTITCRASQDIFNYLAWFQQKPGKVPELLISAASTLQSGVPSRFSGSGSGTYFTLTISSLQPEDIATYYCQRYNSAPLTFGGGTKVEIK	37 min	117 min	43 min	165%	37 fold above background	1 fold above background	26 fold above background	40 fold above background
H1H6795P (antibody, human IgG1, V domains shown, human IgG1 Fc (H1H)) VH: QVQLVQSGAEVKKPGASVKVSCKASGYTFGTSGITWVRQAPGQGLEWMGWSSAYNGKTDYAQKFQDRVTMTTDTSTTTGYMEMRSLTSDDTAVYYCTTVVRRPFDFWGQGTLVTVSS VL: DIQMTQSPSSLSASVGDRVTITCRASQDINNFLAWFQQKPGKAPKSLIYAASSLQSGVPSKFSGGGSGTDFALTISSLQPEDFATYYCQQYSSYPITFGQGTRLEIK	2 min	149 min	2 min	151%	1 fold above background	1 fold above background	22 fold above background	34 fold above background
H1H6792P (antibody, human IgG1, V domains shown, human IgG1 Fc (H1H)) VH: EVQLVESGGGLVQPGRSLRLSCAASGFTLDDHAVHWVRQAPGKGLEWVSGISWNSVYIDYADSVKGRFTIFRDNAKNSLYLQMNSLRAEDTAFYYCARDIEGARDYWGQGTLVTVSS VL: DIQMTQSPSSLSASVGDRVTITCRASQGIRNDLGWYQQKPGKAPKRLIYAASSLQSGVPSRFSGSGYGTEFTLTISSLQPEDFAPYYCLQHNSYPLTFGGGTKVEIK	5 min	66 min	4 min	156%	37 fold above background	3 fold above background	28 fold above background	37 fold above background
